Laboratory results taken from publication PMC4339880, “Enzymatic properties and subtle differences in the substrate specificity of phylogenetically distinct invertebrate N-glycan processing hexosaminidases” (Glycobiology, 2014).
Where a chain is given by its changes, count along the chain named.

T1: CeHEX-4 (Caenorhabditis HEX-4) (Caenorhabditis elegans, UniProt Q8WTK2)
T1 sequence (Q8WTK2 25-491): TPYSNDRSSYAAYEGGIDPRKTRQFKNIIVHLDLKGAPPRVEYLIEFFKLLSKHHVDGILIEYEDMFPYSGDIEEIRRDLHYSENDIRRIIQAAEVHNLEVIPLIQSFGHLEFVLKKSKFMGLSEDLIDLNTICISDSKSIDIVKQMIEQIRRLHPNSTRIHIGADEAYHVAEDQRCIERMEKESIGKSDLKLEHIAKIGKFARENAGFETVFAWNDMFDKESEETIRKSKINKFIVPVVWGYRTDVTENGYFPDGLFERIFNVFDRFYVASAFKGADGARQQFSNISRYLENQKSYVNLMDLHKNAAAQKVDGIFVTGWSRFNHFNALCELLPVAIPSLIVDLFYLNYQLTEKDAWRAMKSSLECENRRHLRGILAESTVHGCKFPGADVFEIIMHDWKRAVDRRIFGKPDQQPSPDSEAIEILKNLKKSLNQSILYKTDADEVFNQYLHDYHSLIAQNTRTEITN

T2: DmFDL (Drosophila melanogaster FDL) (Drosophila melanogaster, UniProt Q8WSF3, W506A)
T2 construct: soluble form without transmembrane domain, alpha-factor secretion signal, N-terminal His-tag, P. pastoris X-33 (codon-optimized; also made in Hi5 insect cells), Ni-NTA purified
T2 sequence (Q8WSF3 37-660 W506A limits assumed): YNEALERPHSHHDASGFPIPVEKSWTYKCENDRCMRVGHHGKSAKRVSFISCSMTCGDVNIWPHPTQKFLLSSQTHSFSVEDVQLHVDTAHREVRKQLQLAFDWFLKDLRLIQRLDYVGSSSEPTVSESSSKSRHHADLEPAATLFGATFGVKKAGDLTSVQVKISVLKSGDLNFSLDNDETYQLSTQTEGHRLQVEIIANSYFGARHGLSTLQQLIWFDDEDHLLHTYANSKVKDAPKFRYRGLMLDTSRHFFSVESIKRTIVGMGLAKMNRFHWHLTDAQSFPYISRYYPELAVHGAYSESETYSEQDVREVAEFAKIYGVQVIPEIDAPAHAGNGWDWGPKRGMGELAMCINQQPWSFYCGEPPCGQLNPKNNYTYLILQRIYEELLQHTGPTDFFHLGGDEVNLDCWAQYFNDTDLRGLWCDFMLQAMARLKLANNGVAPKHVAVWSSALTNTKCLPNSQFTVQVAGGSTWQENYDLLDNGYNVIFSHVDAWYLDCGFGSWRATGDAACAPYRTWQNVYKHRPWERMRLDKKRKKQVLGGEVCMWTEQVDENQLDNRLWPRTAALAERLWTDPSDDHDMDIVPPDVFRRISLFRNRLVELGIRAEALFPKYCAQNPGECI

T3: DmFDL (Drosophila melanogaster FDL) (Drosophila melanogaster, UniProt Q8WSF3, G400V)
T3 construct: soluble form without transmembrane domain, alpha-factor secretion signal, N-terminal His-tag, P. pastoris X-33 (codon-optimized; also made in Hi5 insect cells), Ni-NTA purified
T3 sequence (Q8WSF3 37-660 G400V limits assumed): T2 sequence (Q8WSF3 37-660 W506A limits assumed) with G364V, A470W

B1: CeHEX-2 (C. elegans HEX-2) (Caenorhabditis elegans) (protein)
chain: SYPKGGISQRALDSMQKEPQTPVLVQKRENFEESIDVAVEQESKKENPFVNQQASTENAKPITQEVKIERPSRDNEFYKNVVIHFDLKGAPPKVDYFLDLLRLIAKGGATGILLEWEDMFPWTGKLEQFKNTDAYSESDVDMILSEATKLKLDVIPLVQTFGHLEWILKYEEMRKYRENDAYPQVLCLGNEEGVEFVREMIRQVAKKHAKYGIPFFHIGADEAFEFGVCQESLDWIKKNGKNGRKQLLALAHLKAIAEFAKQQTGDSTQILAWHDMLKDFDSRLIKNLELGQIIQPVVWDYSENIITLNDYIFSALAENFPTMWASSAYKGANYPSASTSEVRHYETNNRNWIRTKQNQERKFKNGFQGIIVTGWQRYDHLAGLCETLPIGTASMMLQMQIALNAPALDLEGTRQKAATLLECQGFNVDGVKVVSNQCKYRGFQTYLIYQSEVPNLFARIDSELSKNHHLMGWANRYNRKYNISQNWYHREMLPFVQQLVGQYDRVESDLRASMKDLYFENTIDEFIYENLGEMSEKLHGYLEEIQRLDKLRAWPKRHFPIKK
notes: soluble form without transmembrane domain, alpha-factor secretion signal, C-terminal His-tag, P. pastoris X-33, Ni-NTA purified
B2: CeHEX-3 (C. elegans HEX-3) (Caenorhabditis elegans) (protein)
chain: TSQFKSTTTHARFVPEPSDPRLHPNSPLQAPKAQEPAAAETTKKPSRQPHHTTAKPRTENVEINGEKYPKLSPDGNLIPQRRIVHLDLKGAPYKPEFFTELFAFFNRIQATGILLEWEDMFPFKGRLRGAINKNAYSMETVEHILQEAQKHHLQIIPLVQTMGHLEWILKLEEFAHLREDTRFPQVICFSDENAWELIKEMIEEVANVHKKYGMSYFHIGADEAFQIGICNASITQIKKEFTRERLMLWHIARTARFVKEKYPETQVLAWHDMLASAMESDIEDYKLTELLQPVLWNYAEDLDIYLPRSTWMIVRNFRNVWGSSAWKGADGPARYSTNANHYLKNHESWIKQFTMVYKDFEVVEGLIMAGWSRYDHFAVLAETIPVALPTLAMSMETMIEGRPLAGNYPVTSELLQCTPPLDLGFTATGCKFPGNRIYELINEMYQKQMQLRTYRLDDYELNGWLSRVADDYSVSSHWYIDKIENMIEMHATPLEQLADDLRFEMERIFFKDTVDEFIFTYLGEDLEWFNRKRETIRKVSTSQTFPKRPFIESAKSEKTCT
B3: CeHEX-4 (Caenorhabditis HEX-4) (Caenorhabditis elegans) (protein)
chain: T1 sequence (Q8WTK2 25-491)
B4: DmFDL (Drosophila melanogaster FDL) (Drosophila melanogaster) (protein)
chain: T2 sequence (Q8WSF3 37-660 W506A limits assumed) with A470W
notes: soluble form without transmembrane domain, alpha-factor secretion signal, N-terminal His-tag, P. pastoris X-33 (codon-optimized; also made in Hi5 insect cells), Ni-NTA purified

Experiments:
[1] = target: T1, CeHEX-4 (Caenorhabditis HEX-4); experiment: inhibition of pNP-β-GalNAc hydrolysis (A405), Cheng-Prusoff from IC50; Dixon plot; format: biochemical; conditions: substrate pNP-β-GalNAc, McIlvaine buffer, 37°C
[2] = target: T2, DmFDL (Drosophila melanogaster FDL); experiment: p-nitrophenol release, A405; format: biochemical; conditions: 5 mM substrate, McIlvaine buffer, 30°C
[3] = target: T3, DmFDL (Drosophila melanogaster FDL); experiment: p-nitrophenol release, A405; format: biochemical; conditions: 5 mM substrate, McIlvaine buffer, 30°C
[4] = substrate: CC(=O)N[C@H]1[C@H](Oc2ccc([N+](=O)[O-])cc2)O[C@H](CO)[C@H](O)[C@@H]1O; experiment: p-nitrophenol release, A405, non-linear fit; format: biochemical, Caenorhabditis elegans; conditions: McIlvaine buffer at optimal pH (5-6), 37°C
[5] = substrate: CC(=O)N[C@H]1[C@H](Oc2ccc([N+](=O)[O-])cc2)O[C@H](CO)[C@@H](O)[C@@H]1O; experiment: p-nitrophenol release, A405, non-linear fit; format: biochemical, Caenorhabditis elegans; conditions: McIlvaine buffer at optimal pH (5-6), 37°C
[6] = substrate: CC(=O)N[C@H]1[C@H](Oc2ccc([N+](=O)[O-])cc2)O[C@H](CO)[C@H](O)[C@@H]1O; experiment: purified protein, by the assay type; parameters: p-nitrophenol release from pNP-glycoside substrate, A405, non-linear Michaelis-Menten fit
Protocol: (§1) Determination of Km, specific activity, kcat and Ki Standard enzymatic activity assays were performed using pNP-β-GlcNAc (Sigma, USA) and pNP-β-GalNAc (Sigma, USA) as a substrate. The assays were performed at a substrate concentration of 5 mM in McIlvaine buffer, pH 4.0–6.0 at 30°C for Drosophila FDL and at 37°C for the other hexosaminidases. The total reaction volume was 40 µL and incubation time was 2 h. All purified enzymes were tested for additional activities using a range of p-nitrophenyl-sugars as substrates at a concentration of 5 mM for 4 h. After the addition of 200 µL of 0.4 M glycine/NaOH pH 10.4, A405nm was determined on a Tecan Infinite M200 microtiter plate reader (Tecan, Austria). All enzymes were appropriately diluted for measurements in order to measure reactions within the linear range of the assay. Enzyme units are given in µmol product (nitrophenol) per minute.

[7] = substrate: CC(=O)N[C@H]1[C@H](Oc2ccc([N+](=O)[O-])cc2)O[C@H](CO)[C@@H](O)[C@@H]1O; experiment: purified protein, by the assay type; parameters: p-nitrophenol release from pNP-glycoside substrate, A405, non-linear Michaelis-Menten fit
Protocol: as §1

| Molecule | Km [4] [µM] | Km [5] [µM] | kcat [5] [s⁻¹] | kcat/Km [5] [M⁻¹ s⁻¹] | kcat [4] [s⁻¹] | kcat/Km [4] [M⁻¹ s⁻¹] | further results |
| --- | --- | --- | --- | --- | --- | --- | --- |
| CC(=O)N[C@H]1C(O)O[C@H](CO)[C@H](O)[C@@H]1O (stereo partly shown) [GalNAc, N-acetylgalactosamine] |  |  |  |  |  |  | Ki [1]: 1000 µM |
| CC(=O)N[C@H]1[C@H](Oc2ccc([N+](=O)[O-])cc2)O[C@H](CO)[C@H](O)[C@@H]1O [pNP-β-GalNAc, p-nitrophenyl-β-D-N-acetylgalactosaminide] |  |  |  |  |  |  | p-nitrophenol release, A405 [2]: the W506A mutant showed decreased activity toward pNP-β-GalNAc; p-nitrophenol release, A405 [3]: the Drosophila G400V mutant showed increased |
| B1 | 410 ± 80 | 230 ± 150 | 8.6 ± 0.8 | 22000 ± 3600 |  |  |  |
| B2 | 590 ± 140 | 970 ± 700 | 0.1 | 200 ± 100 | 5.2 ± 1 | 7800 ± 3000 |  |
| B3 | 590 ± 50 | 3470 ± 350 | 12.6 ± 1.4 | 2200 ± 100 | 13.8 ± 1.4 | 19500 ± 2300 |  |
| B4 |  |  |  |  |  |  | Km [6]: 520 ± 30 µM; kcat [6]: 5.6 ± 0.1 s⁻¹; kcat/Km [6]: 11900 ± 800 M⁻¹ s⁻¹; Km [7]: 1400 ± 80 µM; kcat [7]: 48.2 ± 2.2 s⁻¹; kcat/Km [7]: 42000 ± 1800 M⁻¹ s⁻¹ |
